Experiment in all cases: SPR; Lge1-CT immobilised on a CM5 chip, Bre1-LR flown over; Biacore 8K, 25°C, 20 mM HEPES (pH 7.5), 200 mM sodium chloride, 0.02% Tween 20
Common to all, as to conditions: both partners purified
In general terms: SPR reads the build-up and loss of mass on a sensor chip optically.

The target in one test is T1, Bre1-LR K352E (budding yeast, UniProt Q07457 227-700, K352E).
T1 construct: source: E. coli BL21 Rosetta (DE3), purified (Ni-NTA, heparin, gel filtration)
T1 sequence (looked up): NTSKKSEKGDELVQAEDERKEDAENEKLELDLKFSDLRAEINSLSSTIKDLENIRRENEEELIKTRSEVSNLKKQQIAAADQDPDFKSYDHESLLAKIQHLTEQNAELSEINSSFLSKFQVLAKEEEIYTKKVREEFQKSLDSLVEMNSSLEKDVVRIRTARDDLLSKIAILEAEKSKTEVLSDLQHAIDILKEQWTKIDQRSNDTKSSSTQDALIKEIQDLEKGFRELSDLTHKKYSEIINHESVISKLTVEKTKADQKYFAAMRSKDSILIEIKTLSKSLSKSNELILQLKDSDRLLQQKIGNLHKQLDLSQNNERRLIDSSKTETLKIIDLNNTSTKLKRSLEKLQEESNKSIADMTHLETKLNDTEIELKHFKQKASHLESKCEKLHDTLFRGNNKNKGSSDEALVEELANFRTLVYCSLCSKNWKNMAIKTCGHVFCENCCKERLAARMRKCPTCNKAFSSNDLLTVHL

Another test concerns the target T2, Bre1-LR K534E (budding yeast, UniProt Q07457 227-700, K534E).
T2 construct: source: E. coli BL21 Rosetta (DE3), purified (Ni-NTA, heparin, gel filtration)
T2 sequence (looked up): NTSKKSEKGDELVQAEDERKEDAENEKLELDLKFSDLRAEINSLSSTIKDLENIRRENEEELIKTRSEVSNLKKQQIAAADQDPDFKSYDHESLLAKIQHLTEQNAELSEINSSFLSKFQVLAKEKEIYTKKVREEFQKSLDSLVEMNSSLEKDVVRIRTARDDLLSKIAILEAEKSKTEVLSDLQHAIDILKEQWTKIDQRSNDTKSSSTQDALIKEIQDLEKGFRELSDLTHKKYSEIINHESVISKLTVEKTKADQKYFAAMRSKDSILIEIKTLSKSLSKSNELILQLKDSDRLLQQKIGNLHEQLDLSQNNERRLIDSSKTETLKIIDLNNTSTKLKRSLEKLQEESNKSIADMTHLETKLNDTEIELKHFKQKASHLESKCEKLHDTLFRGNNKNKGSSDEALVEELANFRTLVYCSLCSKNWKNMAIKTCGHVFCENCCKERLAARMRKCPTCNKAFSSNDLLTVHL

A further test addresses T3, Bre1-LR K379A (budding yeast, UniProt Q07457 227-700, K379A).
T3 construct: source: E. coli BL21 Rosetta (DE3), purified (Ni-NTA, heparin, gel filtration)
T3 sequence (looked up): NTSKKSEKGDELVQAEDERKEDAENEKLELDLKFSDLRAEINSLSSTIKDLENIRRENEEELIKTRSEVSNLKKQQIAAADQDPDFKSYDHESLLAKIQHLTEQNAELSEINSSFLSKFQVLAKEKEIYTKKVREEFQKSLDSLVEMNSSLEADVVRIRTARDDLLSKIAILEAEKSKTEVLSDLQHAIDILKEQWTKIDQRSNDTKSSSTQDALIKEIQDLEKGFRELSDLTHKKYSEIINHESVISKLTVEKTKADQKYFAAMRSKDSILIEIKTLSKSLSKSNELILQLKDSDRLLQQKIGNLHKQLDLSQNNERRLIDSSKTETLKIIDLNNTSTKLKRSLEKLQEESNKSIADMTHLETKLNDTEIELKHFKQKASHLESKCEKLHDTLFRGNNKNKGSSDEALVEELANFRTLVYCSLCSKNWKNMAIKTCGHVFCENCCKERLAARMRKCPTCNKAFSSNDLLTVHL

A further test addresses T4, Bre1-LR V382N (budding yeast, UniProt Q07457 227-700, V382N).
T4 construct: source: E. coli BL21 Rosetta (DE3), purified (Ni-NTA, heparin, gel filtration)
T4 sequence (looked up): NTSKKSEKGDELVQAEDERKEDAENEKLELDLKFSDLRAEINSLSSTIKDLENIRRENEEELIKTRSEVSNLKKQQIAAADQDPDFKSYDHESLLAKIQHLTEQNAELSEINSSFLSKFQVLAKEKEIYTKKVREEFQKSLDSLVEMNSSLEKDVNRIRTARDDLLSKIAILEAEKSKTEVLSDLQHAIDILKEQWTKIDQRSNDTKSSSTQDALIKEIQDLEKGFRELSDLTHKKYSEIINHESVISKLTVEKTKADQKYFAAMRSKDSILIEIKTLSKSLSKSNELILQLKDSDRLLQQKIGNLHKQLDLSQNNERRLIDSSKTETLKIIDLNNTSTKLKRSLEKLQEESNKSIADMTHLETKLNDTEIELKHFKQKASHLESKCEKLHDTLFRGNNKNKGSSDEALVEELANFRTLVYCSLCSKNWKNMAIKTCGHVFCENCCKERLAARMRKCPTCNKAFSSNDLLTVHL

In publication PMC12802937 (Nucleic Acids Research, 2026) one finds Kd data, which are given here for 1 molecule.

B1: Lge1-CT (Lge1 residues 261–332), intein-chitin binding domain (CBD) tag construct (domain or fragment, budding yeast, UniProt Q02796 261-332, looked up)
chain: KNVKKTNNTESECEKAREVFKESDSIDSALEELNLKINSNELELRLLNNQCDKHALNIQLTQEKLDSLLLMQ
notes: Lge1, budding yeast, residues 261-332; residues 268–331 resolved in the electron density; the intein-CBD tag is named on the protein in the pull-down; also called intein-CBD-fused Lge1-CT; intein-CBD-tagged Lge1-CT; source: E. coli BL21 Rosetta (DE3): cleared cell extract on chitin resin (pull-down); purified (chitin, heparin, gel filtration) for ITC and SPR; co-purified with Bre1-LR for the …
As usually defined, the Kd is the free concentration of one partner at which half of the binding sites on the other are occupied at equilibrium, for simple one-to-one binding. Read a low Kd as tighter binding. With B1, the equilibrium dissociation constant (Kd) with Bre1-LR K352E is 76.6 nM; in the test with Bre1-LR K534E, 19.4 nM; in the test with Bre1-LR K379A, 34 nM; in the test with Bre1-LR V382N, 63 nM.
